Measurements taken from patent US20100104555A1.

How the values were obtained:
Test in all cases: cell-based or functional assay
[1] = molecular target: E1E2 Env of HCV isolate J6 (genotype 2a) on HCVpp (hepatitis C virus genotype 2a, isolate J6) (UniProt P26660)
[2] = molecular target: E1E2 Env of HCV isolate OH8 (genotype 1b) on HCVpp (hepatitis C virus genotype 1b, isolate OH8)
[3] = molecular target: E1E2 Env of HCV isolate UKN1B12.16 (genotype 1b) on HCVpp (hepatitis C virus genotype 1b, isolate UKN1B12.16)
[4] = molecular target: E1E2 Env of HCV isolate UKN2A1.2 (genotype 2a) on HCVpp (hepatitis C virus genotype 2a, isolate UKN2A1.2)
[5] = molecular target: E1E2 Env of HCV isolate UKN2B1.1 (genotype 2b) on HCVpp (hepatitis C virus genotype 2b, isolate UKN2B1.1)
[6] = molecular target: E1E2 Env of HCV isolate UKN4.21.16 (genotype 4) on HCVpp (hepatitis C virus genotype 4, isolate UKN4.21.16)
[7] = molecular target: E1E2 Env of HCV isolate UKN5.15.7 (genotype 5) on HCVpp (hepatitis C virus genotype 5, isolate UKN5.15.7)
[8] = molecular target: VSV (control pseudotype virus)
[9] = molecular target: E1E2 Env of HCV isolate H (genotype 1a) on HCVpp (hepatitis C virus genotype 1a, isolate H)

E1E2 Env of HCV isolate J6 (genotype 2a) on HCVpp (hepatitis C virus genotype 2a, isolate J6), sequence (P26660 192-750 limits assumed): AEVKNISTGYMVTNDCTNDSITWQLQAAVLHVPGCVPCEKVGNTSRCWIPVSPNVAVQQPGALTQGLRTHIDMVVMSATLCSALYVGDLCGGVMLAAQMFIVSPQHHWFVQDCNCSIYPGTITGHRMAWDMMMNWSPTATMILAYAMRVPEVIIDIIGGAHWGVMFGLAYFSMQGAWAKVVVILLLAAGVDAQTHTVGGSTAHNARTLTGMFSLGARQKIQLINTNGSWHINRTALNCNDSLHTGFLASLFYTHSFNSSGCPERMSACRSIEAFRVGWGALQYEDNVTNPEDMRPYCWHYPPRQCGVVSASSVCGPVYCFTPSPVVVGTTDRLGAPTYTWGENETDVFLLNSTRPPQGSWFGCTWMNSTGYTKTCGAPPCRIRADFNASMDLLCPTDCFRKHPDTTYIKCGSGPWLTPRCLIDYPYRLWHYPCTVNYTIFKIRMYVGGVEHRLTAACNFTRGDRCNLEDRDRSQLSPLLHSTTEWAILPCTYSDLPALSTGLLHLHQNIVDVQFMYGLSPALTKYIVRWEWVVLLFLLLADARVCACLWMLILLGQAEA
MAb AR3B (antibody), sequence (VH): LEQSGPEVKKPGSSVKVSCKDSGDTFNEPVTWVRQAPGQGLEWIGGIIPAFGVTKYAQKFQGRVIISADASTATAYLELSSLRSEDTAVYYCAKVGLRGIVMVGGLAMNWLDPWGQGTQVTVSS
MAb AR3B (antibody), sequence (VL): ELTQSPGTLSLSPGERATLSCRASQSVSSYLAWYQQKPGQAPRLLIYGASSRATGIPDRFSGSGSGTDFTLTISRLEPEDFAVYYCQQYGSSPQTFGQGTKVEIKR
MAb AR1B (antibody), sequence (VH): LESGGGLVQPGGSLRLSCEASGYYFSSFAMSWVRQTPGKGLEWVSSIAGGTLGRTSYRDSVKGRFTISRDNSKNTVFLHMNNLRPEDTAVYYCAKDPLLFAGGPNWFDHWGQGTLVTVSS
MAb AR1B (antibody), sequence (VL): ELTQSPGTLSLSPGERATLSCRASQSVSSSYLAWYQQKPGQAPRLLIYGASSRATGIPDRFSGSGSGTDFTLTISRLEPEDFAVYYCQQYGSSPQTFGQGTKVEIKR
MAb AR3C (antibody), sequence (VH): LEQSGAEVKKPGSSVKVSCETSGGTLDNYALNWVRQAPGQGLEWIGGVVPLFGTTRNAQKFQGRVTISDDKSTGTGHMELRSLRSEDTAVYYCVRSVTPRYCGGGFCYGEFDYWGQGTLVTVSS
MAb AR3C (antibody), sequence (VL): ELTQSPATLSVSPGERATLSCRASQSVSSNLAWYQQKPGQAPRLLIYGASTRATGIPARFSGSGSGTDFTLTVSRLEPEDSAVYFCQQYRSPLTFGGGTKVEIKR
MAb AR2A (antibody), sequence (VH): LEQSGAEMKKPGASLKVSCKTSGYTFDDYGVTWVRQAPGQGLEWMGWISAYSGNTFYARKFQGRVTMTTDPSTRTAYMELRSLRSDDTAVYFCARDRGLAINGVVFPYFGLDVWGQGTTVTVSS
MAb AR2A (antibody), sequence (VL): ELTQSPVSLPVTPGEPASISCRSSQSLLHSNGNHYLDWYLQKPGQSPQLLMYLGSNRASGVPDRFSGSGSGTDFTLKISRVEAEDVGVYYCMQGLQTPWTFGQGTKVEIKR

Work on MAb AR1A (antibody) yielded a Neutralizing activity (IC50), HCVpp [1] of over 50 µg/mL, a Neutralizing activity (IC50), HCVpp [2] of over 50 µg/mL and a Neutralizing activity (IC50), HCVpp [3] of over 50 µg/mL. It also gave a Neutralizing activity (IC50), HCVpp [4] of over 50 µg/mL, a Neutralizing activity (IC50), HCVpp [5] of over 50 µg/mL and a Neutralizing activity (IC50), HCVpp [6] of over 50 µg/mL. The Neutralizing activity (IC50), HCVpp [7] was over 50 µg/mL and the Neutralizing activity (IC50), control pseudotype [8] was over 50 µg/mL.

Work on MAb AR1B (antibody) yielded a Neutralizing activity (IC50), HCVpp [1] of over 50 µg/mL, a Neutralizing activity (IC50), HCVpp [2] of over 50 µg/mL and a Neutralizing activity (IC50), HCVpp [3] of over 50 µg/mL. It also gave a Neutralizing activity (IC50), HCVpp [4] of over 50 µg/mL, a Neutralizing activity (IC50), HCVpp [5] of over 50 µg/mL and a Neutralizing activity (IC50), HCVpp [6] of over 50 µg/mL. The Neutralizing activity (IC50), HCVpp [7] was over 50 µg/mL and the Neutralizing activity (IC50), control pseudotype [8] was over 50 µg/mL.

With MAb AR2A (antibody) the Neutralizing activity (IC50), HCVpp [9] was 5 µg/mL, the Neutralizing activity (IC50), HCVpp [1] was over 50 µg/mL and the Neutralizing activity (IC50), HCVpp [2] was over 50 µg/mL. The Neutralizing activity (IC50), HCVpp [3] was over 50 µg/mL, the Neutralizing activity (IC50), HCVpp [4] was 5 µg/mL and the Neutralizing activity (IC50), HCVpp [5] was 10 µg/mL. The Neutralizing activity (IC50), HCVpp [6] was 1 µg/mL, the Neutralizing activity (IC50), HCVpp [7] was 10 µg/mL and the Neutralizing activity (IC50), control pseudotype [8] was over 50 µg/mL.

MAb AR3B (antibody) gave a Neutralizing activity (IC50), HCVpp [9] of 1 µg/mL, a Neutralizing activity (IC50), HCVpp [1] of 10 µg/mL and a Neutralizing activity (IC50), HCVpp [2] of 5 µg/mL. It also gave a Neutralizing activity (IC50), HCVpp [3] of 1 µg/mL, a Neutralizing activity (IC50), HCVpp [4] of 5 µg/mL and a Neutralizing activity (IC50), HCVpp [5] of 10 µg/mL. The Neutralizing activity (IC50), HCVpp [6] was 1 µg/mL, the Neutralizing activity (IC50), HCVpp [7] was 1 µg/mL and the Neutralizing activity (IC50), control pseudotype [8] was over 50 µg/mL.

For MAb AR3C (antibody), the Neutralizing activity (IC50), HCVpp [9] was 1 µg/mL, the Neutralizing activity (IC50), HCVpp [1] was 10 µg/mL and the Neutralizing activity (IC50), HCVpp [2] was 5 µg/mL. It also gave a Neutralizing activity (IC50), HCVpp [3] of 1 µg/mL, a Neutralizing activity (IC50), HCVpp [4] of 10 µg/mL and a Neutralizing activity (IC50), HCVpp [5] of 10 µg/mL. The Neutralizing activity (IC50), HCVpp [6] was 1 µg/mL, the Neutralizing activity (IC50), HCVpp [7] was 1 µg/mL and the Neutralizing activity (IC50), control pseudotype [8] was over 50 µg/mL.

MAb AR3D (antibody) was tested, and the Neutralizing activity (IC50), HCVpp [9] was 1 µg/mL, the Neutralizing activity (IC50), HCVpp [1] was 50 µg/mL and the Neutralizing activity (IC50), HCVpp [2] was 5 µg/mL. For the same substance, the Neutralizing activity (IC50), HCVpp [3] was 1 µg/mL, the Neutralizing activity (IC50), HCVpp [4] was 25 µg/mL and the Neutralizing activity (IC50), HCVpp [5] was 25 µg/mL. The Neutralizing activity (IC50), HCVpp [6] was 1 µg/mL, the Neutralizing activity (IC50), HCVpp [7] was 10 µg/mL and the Neutralizing activity (IC50), control pseudotype [8] was over 50 µg/mL.
